B1: Advillin, residues 785 to 819; numbered along this chain, O75366 (parent)
chain: LSEQDFVSVFGITRGQFAALPGWKQLQMKKEKGLF

± gives the uncertainty stated by the source.

Variants of B1 are the subject of the data set. Briefly: abundance fitness (aPCA) (normalised: wild type 0, dead -1); higher = more abundant; growth selection in yeast, the domain comes from the species named. The conditions noted are these: Homo sapiens.
For LSEQDFVSVFGITRGQFAALPGWKQVQMKKEKGLF [L26V], the abundance fitness turned out to be 0.073 ± 0.057.

As to LSEQDFVSVFGITRGQFAALPGWKQDQMKKEKGLF [L26D], the abundance fitness was -0.01 ± 0.083.

As for LSEQDFVSVFGITRGQFAALPGWKQCQMKKEKGLF [L26C], the abundance fitness was -0.606 ± 0.089.

Take LSEQDFVSVFGITRGQFAALPGWKQYQMKKEKGLF [L26Y]: the abundance fitness is -0.174 ± 0.15.

As for LSEQDFVSVFGITRGQFAALPGWKQFQMKKEKGLF [L26F], the abundance fitness was -0.185 ± 0.15.

Turning to LSEQDFVSVFGITRGQFAALPGWKQMQMKKEKGLF [L26M], the abundance fitness was -0.114 ± 0.063.

Take LSEQDFVSVFGITRGQFAALPGWKQIQMKKEKGLF [L26I]: the abundance fitness is -0.181 ± 0.16.

On to LSEQDFVSVFGITRGQFAALPGWKQAQMKKEKGLF [L26A], for which the abundance fitness is 0.034 ± 0.063.

For the variant LSEQDFVSVFGITRGQFAALPGWKQGQMKKEKGLF [L26G], the abundance fitness was -0.146 ± 0.067.

As to LSEQDFVSVFGITRGQFAALPGWKQHQMKKEKGLF [L26H], the abundance fitness was -0.132 ± 0.14.

LSEQDFVSVFGITRGQFAALPGWKQQQMKKEKGLF [L26Q]: the abundance fitness turned out to be 0.12 ± 0.11.

In the case of LSEQDFVSVFGITRGQFAALPGWKQLQMFKEKGLF [K29F], the abundance fitness was -0.005 ± 0.26.

For the variant LSEQDFVSVFGITRGQFAALPGWKQLQMCKEKGLF [K29C], the abundance fitness was -0.024 ± 0.06.

For LSEQDFVSVFGITRGQFAALPGWKQLQMGKEKGLF [K29G], the abundance fitness was -0.266 ± 0.065.

As for LSEQDFVSVFGITRGQFAALPGWKQLQMIKEKGLF [K29I], the abundance fitness is -0.218 ± 0.12.

LSEQDFVSVFGITRGQFAALPGWKQLQMHKEKGLF [K29H]: the abundance fitness is -0.099 ± 0.11.

Regarding LSEQDFVSVFGITRGQFAALPGWKQLQMDKEKGLF [K29D], the abundance fitness was -0.356 ± 0.18.

As for LSEQDFVSVFGITRGQFAALPGWKQLQMLKEKGLF [K29L], the abundance fitness was -0.289 ± 0.071.

As to LSEQDFVSVFGITRGQFAALPGWKQLQMAKEKGLF [K29A], the abundance fitness is -0.183 ± 0.061.

Turning to LSEQDFVSVFGITRGQFAALPGWKQLQMMKEKGLF [K29M], the abundance fitness is -0.187 ± 0.16.

As to LSEQDFVSVFGITRGQFAALPCWKQLQMKKEKGLF [G22C], the abundance fitness was -0.44 ± 0.16.

Take LSEQDFVSVFGITRGQFAALPFWKQLQMKKEKGLF [G22F]: the abundance fitness was -0.138 ± 0.079.

For LSEQDFVSVFGITRGQFAALPNWKQLQMKKEKGLF [G22N], the abundance fitness is -0.2 ± 0.11.

As to LSEQDFVSVFGITRGQFAALPMWKQLQMKKEKGLF [G22M], the abundance fitness is -0.084 ± 0.098.

Take LSEQDFVSVFGITRGQFAALPAWKQLQMKKEKGLF [G22A]: the abundance fitness is -0.016 ± 0.083.

On to LSEQDFVSVFGITRGQFAALPSWKQLQMKKEKGLF [G22S], for which the abundance fitness was -0.108 ± 0.078.

Turning to LSEQDFVSVFGITRGQFAALPVWKQLQMKKEKGLF [G22V], the abundance fitness is -0.021 ± 0.082.

With LSEQDFVSVFGITRGQFAALPYWKQLQMKKEKGLF [G22Y], the abundance fitness was -0.093 ± 0.1.

For the variant LSEQDFVSVFGITRGQFAALPLWKQLQMKKEKGLF [G22L], the abundance fitness was -0.074 ± 0.091.

In the case of LSEQDFVSVFGITRGQFAALPEWKQLQMKKEKGLF [G22E], the abundance fitness stood at 0.069 ± 0.079.

Consider LSEQDFVSVFGITRGQFAALPQWKQLQMKKEKGLF [G22Q], for which the abundance fitness is 0.01 ± 0.079.

Consider LSEQDFVSVFGITRGQFAALPIWKQLQMKKEKGLF [G22I], for which the abundance fitness was -0.162 ± 0.1.

Turning to LSEQDFVSVFGITRGQFAALPTWKQLQMKKEKGLF [G22T], the abundance fitness came out at 0.005 ± 0.086.

As to LSEQDFVSVFGITRGQFAALPHWKQLQMKKEKGLF [G22H], the abundance fitness was found to be 0.082 ± 0.15.

In the case of LSEQDFVSVFGITRGQFAALPKWKQLQMKKEKGLF [G22K], the abundance fitness is 0.064 ± 0.073.

As to LSEQDFVSVFGITRGQFAALPWWKQLQMKKEKGLF [G22W], the abundance fitness is -0.405 ± 0.076.

Regarding LSEQDFVSVFGITRGQFAALPRWKQLQMKKEKGLF [G22R], the abundance fitness is -0.099 ± 0.062.

Turning to LSEQDFVSVFGITRGQFAALPPWKQLQMKKEKGLF [G22P], the abundance fitness turned out to be 0.067 ± 0.065.

For the variant LSEQDFVSVFGITRGQFAALPDWKQLQMKKEKGLF [G22D], the abundance fitness was -0.104 ± 0.14.

On to LSEQDFVSVFGITRGQFAALPGTKQLQMKKEKGLF [W23T], for which the abundance fitness is -0.228 ± 0.067.

LSEQDFVSVFGITRGQFAALPGNKQLQMKKEKGLF [W23N]: the abundance fitness is -0.319 ± 0.09.

As for LSEQDFVSVFGITRGQFAALPGEKQLQMKKEKGLF [W23E], the abundance fitness came to 0.081 ± 0.063.

Consider LSEQDFVSVFGITRGQFAALPGIKQLQMKKEKGLF [W23I], for which the abundance fitness is -0.284 ± 0.1.

On to LSEQDFVSVFGITRGQFAALPGKKQLQMKKEKGLF [W23K], for which the abundance fitness was -0.042 ± 0.077.

On to LSEQDFVSVFGITRGQFAALPGYKQLQMKKEKGLF [W23Y], for which the abundance fitness is -0.211 ± 0.14.

As to LSEQDFVSVFGITRGQFAALPGHKQLQMKKEKGLF [W23H], the abundance fitness is -0.101 ± 0.086.

For the variant LSEQDFVSVFGITRGQFAALPGVKQLQMKKEKGLF [W23V], the abundance fitness was -0.11 ± 0.078.

Take LSEQDFVSVFGITRGQFAALPGLKQLQMKKEKGLF [W23L]: the abundance fitness was -0.233 ± 0.064.

For the variant LSEQDFVSVFGITRGQFAALPGMKQLQMKKEKGLF [W23M], the abundance fitness is -0.108 ± 0.14.

Consider LSEQDFVSVFGITRGQFAALPGQKQLQMKKEKGLF [W23Q], for which the abundance fitness was -0.213 ± 0.093.

For the variant LSEQDFVSVFGITRGQFAALPGFKQLQMKKEKGLF [W23F], the abundance fitness was -0.22 ± 0.19.

Consider LSEQDFVSVFGITRGQFAALPGPKQLQMKKEKGLF [W23P], for which the abundance fitness was -0.188 ± 0.065.

As for LSEQDFVSVFGITRGQFAALPGDKQLQMKKEKGLF [W23D], the abundance fitness is 0.005 ± 0.098.

As for LSEQDFVSVFGITRGQFAALPGAKQLQMKKEKGLF [W23A], the abundance fitness is -0.134 ± 0.062.

LSEQDFVSVFGITRGQFAALPGGKQLQMKKEKGLF [W23G]: the abundance fitness was -0.238 ± 0.056.

As for LSEQDFVSVFGITRGQFAALPGSKQLQMKKEKGLF [W23S], the abundance fitness is -0.092 ± 0.061.

As to LSEQDFVSVFGITRGQFAALPGRKQLQMKKEKGLF [W23R], the abundance fitness is -0.202 ± 0.058.

Regarding LSEQDFVSVFGITRGQFAALPGCKQLQMKKEKGLF [W23C], the abundance fitness was -0.235 ± 0.11.

For the variant LSEQDFVSVFGITRGQFAALPGWKQLQLKKEKGLF [M28L], the abundance fitness was -0.47 ± 0.11.

With LSEQDFVSVFGITRGQFAALPGWKQLQCKKEKGLF [M28C], the abundance fitness is -0.75 ± 0.16.

Turning to LSEQDFVSVFGITRGQFAALPGWKQLQAKKEKGLF [M28A], the abundance fitness is -0.905 ± 0.15.

For the variant LSEQDFVSVFGITRGQFAALPGWKQLQVKKEKGLF [M28V], the abundance fitness was -1.03 ± 0.18.

On to LSEQDFVSVFGITRGQFAALPGWKQLQHKKEKGLF [M28H], for which the abundance fitness is -0.549 ± 0.2.

For LSEQDFVSVFGITRGQFAALPGWKQLQGKKEKGLF [M28G], the abundance fitness was -1.13 ± 0.097.

In the case of LSEQDFVSVFGITRGQFAALPGWKQLQPKKEKGLF [M28P], the abundance fitness was -1.19 ± 0.26.

Take LSEQDFVSVFGITRGQFAALPGWKQLQIKKEKGLF [M28I]: the abundance fitness is -0.619 ± 0.27.

For the variant LSEQDFVSVFGITRGQFAALPGWKQLQSKKEKGLF [M28S], the abundance fitness was -1.14 ± 0.19.

For LSEQDFVSVFGITRGQFAALPGWKQLQKKKEKGLF [M28K], the abundance fitness was -0.708 ± 0.19.

Turning to LSEQDFVSVFGITRGQFAALPGWKQLQRKKEKGLF [M28R], the abundance fitness was -1.14 ± 0.11.

Turning to LSEQDFVSVFGITRGQFAALPGWKQLQTKKEKGLF [M28T], the abundance fitness is -1.03 ± 0.15.

Source of the values: the Human Domainome abundance scans (Beltran et al. 2025).
